Results: publication PMC9120461, “Structural insights into the mechanism of pancreatic KATP channel regulation by nucleotides” (Nature Communications, 2022)

Assays:
[1] = biological target: the molecule itself; experiment: cryo-EM structure; purified H175K_(cryo-EM) fusion protein (13.5 uM octamer) in TBS (20 mM Tris-HCl pH 7.5, 150 mM NaCl) with 0.1% digitonin, with 5 mM MgCl2, 0.5 mM ADP, 0.5 mM NN414 and 10 uM PI(4,5)P2diC8; closed and pre-open states resolved in the same sample
[2] = biological target: T1, SUR1 from Mesocricetus auratus (maSUR1), as the SUR1 part of H175K_(cryo-EM) (Mesocricetus auratus, UniProt A0A1U7R319 1-1582); experiment: as above; settings: both partners purified
T1 construct: SUR1 from Mesocricetus auratus (maSUR1); In the assay it stood on one chain with Kir6.2 H175K: its C terminus is joined to the 41-residue linker and the Prescission site; also called SUR1 subunit; source: purified in digitonin (Streptactin 4FF resin, Superose 6 increase)
T1 sequence (A0A1U7R319 entry or part of it H175K H175K): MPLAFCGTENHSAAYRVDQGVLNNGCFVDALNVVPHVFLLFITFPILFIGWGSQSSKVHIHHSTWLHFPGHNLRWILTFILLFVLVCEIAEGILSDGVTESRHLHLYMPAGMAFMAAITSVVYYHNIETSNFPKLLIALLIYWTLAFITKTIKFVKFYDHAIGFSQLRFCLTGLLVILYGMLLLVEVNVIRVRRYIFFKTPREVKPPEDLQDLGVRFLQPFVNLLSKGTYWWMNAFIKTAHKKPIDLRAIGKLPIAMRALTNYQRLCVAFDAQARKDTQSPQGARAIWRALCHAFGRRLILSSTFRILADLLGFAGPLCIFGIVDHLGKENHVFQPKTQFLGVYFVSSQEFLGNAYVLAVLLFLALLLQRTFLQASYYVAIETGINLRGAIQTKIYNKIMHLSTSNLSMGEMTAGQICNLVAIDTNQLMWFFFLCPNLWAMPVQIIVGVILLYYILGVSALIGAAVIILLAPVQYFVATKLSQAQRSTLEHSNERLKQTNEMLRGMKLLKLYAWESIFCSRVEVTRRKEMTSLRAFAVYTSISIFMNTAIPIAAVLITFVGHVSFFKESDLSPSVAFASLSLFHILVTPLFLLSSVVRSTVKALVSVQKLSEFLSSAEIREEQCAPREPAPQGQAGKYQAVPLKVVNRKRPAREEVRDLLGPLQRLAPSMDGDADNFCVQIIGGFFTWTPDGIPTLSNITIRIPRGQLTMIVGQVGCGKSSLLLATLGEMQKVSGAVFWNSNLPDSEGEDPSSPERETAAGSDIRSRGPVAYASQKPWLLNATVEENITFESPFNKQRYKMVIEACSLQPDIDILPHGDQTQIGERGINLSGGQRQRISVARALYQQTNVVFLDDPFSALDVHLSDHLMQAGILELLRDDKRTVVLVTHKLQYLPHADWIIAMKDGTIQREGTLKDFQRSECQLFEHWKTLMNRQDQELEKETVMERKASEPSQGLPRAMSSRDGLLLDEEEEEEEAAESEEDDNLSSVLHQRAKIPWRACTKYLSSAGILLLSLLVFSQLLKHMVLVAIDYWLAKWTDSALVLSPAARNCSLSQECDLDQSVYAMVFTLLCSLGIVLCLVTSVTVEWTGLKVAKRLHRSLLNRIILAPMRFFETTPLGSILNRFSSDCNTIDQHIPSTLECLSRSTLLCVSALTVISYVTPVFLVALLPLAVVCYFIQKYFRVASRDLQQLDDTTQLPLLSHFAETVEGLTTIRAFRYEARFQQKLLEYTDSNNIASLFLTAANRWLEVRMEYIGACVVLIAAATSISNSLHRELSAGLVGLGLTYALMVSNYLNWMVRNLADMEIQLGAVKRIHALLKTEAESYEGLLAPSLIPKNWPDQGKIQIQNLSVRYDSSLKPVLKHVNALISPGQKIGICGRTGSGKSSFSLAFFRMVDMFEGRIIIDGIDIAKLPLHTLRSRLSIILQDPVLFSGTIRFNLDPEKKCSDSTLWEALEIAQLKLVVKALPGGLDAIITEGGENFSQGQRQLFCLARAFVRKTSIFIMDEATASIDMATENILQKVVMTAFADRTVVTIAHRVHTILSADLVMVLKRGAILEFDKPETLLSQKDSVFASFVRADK

B1: Kir6.2 from Mus musculus (mmKir6.2) H175K mutant, as the Kir6.2 part of H175K_(cryo-EM) (natural protein, UniProt Q61743 2-390, looked up)
chain: LSRKGIIPEEYVLTRLAEDPAEPRYRTRERRARFVSKKGNCNVAHKNIREQGRFLQDVFTTLVDLKWPHTLLIFTMSFLCSWLLFAMVWWLIAFAHGDLAPGEGTNVPCVTSIHSFSSAFLFSIEVQVTIGFGGRMVTEECPLAILILIVQNIVGLMINAIMLGCIFMKTAQAKRRAETLIFSKHAVITLRHGRLCFMLRVGDLRKSMIISATIHMQVVRKTTSPEGEVVPLHQVDIPMENGVGGNGIFLVAPLIIYHVIDSNSPLYDLAPSDLHHHQDLEIIVILEGVVETTGITTQARTSYLADEILWGQRFVPIVAEEDGRYSVDYSKFGNTIKVPTPLCTARQLDEDRSLLDALTLASSRGPLRKRSVAVAKAKPKFSISPDSLS
notes: Kir6.2 from Mus musculus (mmKir6.2), first Met removed, H175K mutant; In the assay it stood on one chain with SUR1: its N terminus is joined to the Prescission site and the 41-residue linker after SUR1; source: purified in digitonin (Streptactin 4FF resin, Superose 6 increase)
B1: binds [1]; binds [2].
